Measurements from a protein production outcome set (Wang et al. 2014).

Assay: label from the status in PepcDB records

Sequence | protein production
MNHRSVRGICATLGVLLVIGCSGPDAKKAKFYAKGKELYDKGDYAKAALEFKNAIQIDPKYAEAYHMLGLVEMKKGNIKGAFGNFTKAVELNPQHQEARLQLGRIYLGAGAPDEAMKEAVEVLKINPASEDAQLLKGAVLIARKEKGKARELLEGLVAKGVKKPDAYSLLASIHALDGNAKDAEAILRKGLAINPSSSDLHLTLAGLCVGTGRTDEAISLLQRVVSLEPGRTDHRLKLAALCWDTGKVAEARKALTDLVAIAPEKEENRLQAAGFLAGKGEADEAEKLLKEGIAGKGKNYKLRFALADLYLNTGKGDQAVTLLTETAGLDKASRQESLQAKNALAQIALDRNRVDEAVKLVTEVLKESPKNTDARFLKGNIHMMKGEGAQAVAEYRTVVTDNPQSVPGFIRLAEAHLLNREKNLAFDNLQNALKIDPENRDALVALARYHVMQKDMKNAEAALRKVLAKSPNDLEAKAELGDLFLAAGDLKRAEAEYGELKRKAPGLPVGYVKMGDIYLHRGKSDKALAELEQAVRLNPSSELLAGSLARLYTRLGKFDKAEFLLDQRLKQNPNDAASYTLLGQMNVARNQYGKARQAYEKALSLNGSNWSAANDLAFLLAETGSGADLDRALTLIEKVKQSRPDDPRVLDTVGWIYYKKGNAGKAVEILSQVHRKTGDSPVIDYHLGMASYKAGDKARAKELLTKAMTSKSGFAGREEAVKTLGIIKG | failed
MNHSFRTGITGRRFSAMRVPYGRSRRTHRNGGAGREGTTMTTTTTPTTTTPTSPPTVKAPTVKAPTAKTATAKTADNPVLRVAPASPAAAAAYFGASLAFHADVSDVATALAAGGDPGFVVLDSRSTASWDQGHVPGAVHLPTALIPEQAEQLLDRSVPVVTYCWGPGCNGATRAALALAELGFQVKEMLGGFEYWVREGFEYETWEGRDHRVADPLTAPVDADDCGC | failed
MNHTADNCIFCKIIDGQILCSKVYEDEHVLAFLDISQVTKGHTLVIPKVHKQDIFALTPEIASHIFSVVPKIANAIKAEFNPVGFNLLNNNGEKAGQTVFHFHLHLIPRYGENDGFGAVWKSHQNEYTMENLQNIASTIANSVK | not failed
MNHTLQFPKAPEHLLQALNEVIPKCKLMAQQLPETAISLWLIPPVFPTERLDDDIIRRIWSDTPYWIFCWASGLAMAQWLLAEPHHVKDKVVLDFGAGSGVVAIAAKMAGAKRVICCDIDETSLNACRENALLNNVELEYLNDLYLSESVDILLAADVLYDQSNRFFLDEFLKFAPEVWVADSRVKNFSHPGYIKIDERSATTWPDLDEAKEFRNVSFYKTL | failed
MNIDAVVEFTKKHLKDEKTGHDFYHGQRVANLASKMYLEDHPDAHADSRMVAIIKSGGYLHDTIDEKVCDNPDKVIAEIKELLPEVGFTDLEVWDILFTIQHMSFSANIEHHYHLPLSGQYVQDADRLESLGAMGIARAFTYGGKHGNKIYDPEIKPEKLVSHDQYRNHVETTINHFYEKLFHLADTMNTPAMKKEANRRTEYMHNFVQEFMNEWNVLEHHHHHH | not failed
MNIDLSAIFAQYEALVAETDALFERVRALHPDCVTCGLGCSDCCHAMFDLSLVEAMYLNGKFAASFDFGPERSAVLERASDADRHAYRIKRRMYRESEDGRPAEDILAEAARERVRCPLLGEGDACVLYAHRPITCRLYGIPTAIGGKGHTCGKTAFRAGEKYPTVAVDRIQDRLAALSKEIAVAVGSRFSELHQVYVPVSMALLTRYDDAYLGIGKPKRDD | failed
MNIGLLEALDQLEEEKGISKEEVIPILEKALVSAYRKNFGNSKNVEVVIDRNTGNIKVYQLLEVVEEVEDPATQISLEEAKKIDPLAEVGSIVKKELNVKNFGRIAAQTAKQVLIQRIRELEKEKQFEKYSELKGTVTTAEVIRVMGEWADIRIGKLETRLPKKEWIPGEEIKAGDLVKVYIIDVVKTTKGPKILVSRRVPEFVIGLMKLEIPEVENGIVEIKAIAREPGVRTKVAVASNDPNVDPIGACIGEGGSRIAAILKELKGEKLDVLKWSDDPKQLIANALAPATVIEVEILDKENKAARVLVPPTQLSLAIGKGGQNARLAAKLTGWKIDIKPIMNL | not failed
MNIGNITISVIIPVYNASVTLPHCLESLHKQTYRNLELLFVDDCSTDESLYILTSYAEQFAEIDFTIRILQHERNRGVAAARNTALKCATGDYIYYVDADDSIEPHTLECLVNEINHKGLDIVGHEWYLTFNSNARYMKQPAYTTSVEALRKMMGGVMRWNLWLFLVRRSLYVENDIRFTEGLNMGEDMMVMMKLFICAGKVGIVHRPFYHYRQSNPESLTKIYSQEHIIQVANNVYEVEKYVNASAYADSLIEFIPFLKLNIKLPLLITDDKSHYEQWLECFPEANCYVMNNKLLPLRTRIIQWMAVKRYFILLRLYYRTVFKLVYGIIYKLEHHHHHH | failed
MNIKINEKWREVKENCTVYALKNEEFPDSHVIVLNGFPLVEDKKLKDGDRIVFIKKGIMPNKEELEELMVSRHTPGIHEKLKRIKVLIAGCGGLGSNIAISLGRIGVGSISLVDFDIVEPSNLNRQQYYIEDIGEFKVTALKRNLIRINPFIKIEALNLKLSEDNMGILQGADIIIEAFDNPDYKALLANYVLGNMKDKFLISSSGMAGFYDSNLIKTKQITDKFYICGDLVNEAKEGCGLMAPRVAICANHMANLVIDIAINKIEFQK | failed
MNIKIVFYVLGGLLRLLGLLMIVPLGVAYYYGESLTPFLVSIVITVLTGLILLSYKTDEDWMRKEGFAIVALGWLAVAVFGAIPFMLDGISPLNSLFEAMSAFTTTGSTILTDIESHPKGILFWRSMMQWLGGMGIIVLFIAVLPKFGVAGRQLFRAEAPGPTEDKLKPRIRETAKILWMVYFVISFAEVVALLLAGLSLYDAITHTFTTMACGGFSPYGTSIEAFRSPLVEYIITFFMFVSGANFALHYRAIYVDKDFLLKDDEFRFYTALTLAATGLLTLLLYRDINTGFFDSFRLAIFQVVSIMTTTGFATADFNFWSDSAKMVLLLIMFVGGCAGSTGGGIKVVRILMLLRHGRVELFKSLHPRAIRGVKFNNKNVPDEVINSIFSFVVIYLFIFMSSALILAVLGMDIITSTTASIATLGNIGPGLNVVGPMGTFDPIPPLGKLILIANMWIGRLEVYTVIVLFTPEFWNK | failed
MNIKLYYVHDPMCSWCWGYKPTIEKLKQQLPGVIQFEYVVGGLAPDTNLPMPPEMQQKLEGIWKQIETQLGTKFNYDFWKLCTPVRSTYQSCRAVIAAGFQDSYEQMLEAIQHAYYLRAMPPHEEATHLQLAKEIGLNVQQFKNDMDGTLLEGVFQDQLSLAKSLGVNSYPSLVLQINDAYFPIEVDYLSTEPTLKLIRERIIENMSA | not failed
MNIMLFHSTYGLRPAVRAAADRLRAAGHEVWTPDLLEGRTFETVEEGMAFCDGIGKDELLKRAVLAAAPYSERGLVYAGFSLGASIAQTLALGDEKARGLLLLHGTSDIAESASVDELPVQLHVAEPDAFETDDWLGAWYLQLRRAGADVEVYRYAGAGHLYTDPDLPDYDAEAAEATWKVALGFLDSL | not failed
MNINENASQYIPHEAPMVFVDDLIEIFDQGALASLTIRPELLFCTAQGLPSWTSIELMAQTISAYSGRNGRQRGHTPRIGFLLGTRKLNLPVAFFELGSTLIIRIEQQYLHEGLGQFACEIEYQAHKISALLSVYEPTVDQDNKENT | failed
MNIPTTTTKGEQAKSQLIAAALAQFGEYGLHATTRDIAALAGQNIAAITYYFGSKEDLYLACAQWIADFLGEKFRPHAEKAERLFSQPAPDRDAIRELILLACKNMIMLLTQEDTVNLSKFISREQLSPTSAYQLVHEQVIDPLHTHLTRLVAAYTGCDANDTRMILHTHALLGEVLAFRLGKETILLRTGWPQFDEEKAELIYQTVTCHIDLILHGLTQRSLD | not failed
MNIQAIDTRHGTANQHSFSNGNCLPYTGVPFGMNFYAPQTTDQKGSWWFHPEDRTFQGYRVTHQPSPWMGDFSHLLMTPVSGSLSELSLFHAQSSYRPEESLFSPVEINLTQLRYQITSQLIPSMYGGILTIDYQQKDNHLLLTLPGRYQVKQLDDHQVAVKVINYSGCEDPDFSFYFVLHFEQPLTKWFAPSSGLEHHHHHH | failed
MNIQLSPLEARVIGCLIEKEVTTPDHYPLTLNSLTTACNQKSNREPVLNLSEAEVQDTVEGLIARRLVSDESSFNSRTSKYQHRFCNTEFGDLKLNQQELGLICCLLLRGAQTPGELRTRTNRLCTFTDVKETEAVLERLANRDSGALVVKLPREPGKRESRYHHLFCGEVDMAA | not failed
MNISKEKVVDAISMVGYFVFAYVVMELLSINKYDWMMESGDSICSIPHQPLSNRILQAGVAALLLITPLFIALARNIFIKNRYKIAYYIVGILCIALYGGWLFLGRFALC | failed
MNISSAQFIPGVHTVEEIEAEIHKNLHISKSCSYQKVPNSHKEFTKFCYEVYNEIKISDKEFKEKRAALDTLRLCLKRISPDAELVAFGSLESGLALKNSDMDLCVLMDSRVQSDTIALQFYEELIAEGFEGKFLQRARIPIIKLTSDTKNGFGASFQCDIGFNNRLAIHNTLLLSSYTKLDARLKPMVLLVKHWAKRKQINSPYFGTLSSYGYVLMVLYYLIHVIKPPVFPNLLLSPLKQEKIVDGFDVGFDDKLEDIPPSQNYSSLGSLLHGFFRFYAYKFEPREKVVTFRRPDGYLTKQEKGWTSATEHTGSADQIIKDRYILAIEDPFEISHNVGRTVSSSGLYRIRGEFMAASRLLNSRSYPIPYDSLFEEAPIPPRRQKKTDEQSNKKLLNETDGDNS | not failed
MNIVIVVFSTDEETLRKFKDIIKKNGFKVRTVRSPQELKDSIEELVKKYNATIVVVVVDDKEWAEKAIRFVKSLGAQVLIIIYDQDQNRLEEFSREVRRRGFEVRTVTSPDDFKKSLERLIREVGSLEHHHHHH | not failed
MNKALIVILSTVALDAIGAGLIFPILPDILVEVTGGGDIGFLYGVMLGVFAVMQFVFSPILGALSDRFGRRPVLLLSLAGTLLDYLVMAFSPLGWVLVVGRAMAGITSANMAVASAYITDITPAEQRAQRFGTVGAVMSLGFIIGPVIGGVIGAWWLRAPFLVAALFNGLNLFVALFVLPESRKAGPGKFAFKELNPLAPLVWLWNFKPLLPLVTVSVVFGLVAAIPGTIWVLYGAERFGWDSVHMGLSLSVFGVSGALAQAFLVGPLSRRFGDLGTLMIGVGFDMLAYMLMAFANQSWMGYAVAPLFALGGVAMPALQSLVTSRVSDDQQGQLQGVLASLMSLAGIIGPVLTTAVFFSTKSIWIGTIWLVGAALYLLALPLFATVKTPKAVAA | failed
MNKFFLESERLIIRPLEESDYDSWYTSFMNRGPSLTPFDDGILDMSMCDINWFKNLVNLQRKEWESDIVYIFGVFLKSGEHVGMLNIVTLARADMQWGELGYVFHNQFWSNGYAFESILALLNSTYEKLGFHHIEAQITPGNERSEKLVRRLGLTYETTRKDFSFENGKWTDKLIYSINLHNNNLE | failed
MNKGFILKALFLLCFLFSQTAQGQSFTPGEIWPDNHQVHINAHGGGILYENGTYYWFGEHKTEGEAGNLANVGVHCYSSDDLYHWKDCGIALSVIENDPGHPISKGCILERPKVIYNPLTKKYVMWFHLEPKGAGYSGALSGIALSDRVTGPYTFLKAVRPNAGSWPINVLPIHKTTRRPSAEEERQCTGGSLPAHPDSLNILGRDMEQGQMARDMNLFVDDDGKAYHIYSSEENSTLHIAELDPTYTGYTGKYIRVFINRFMEAPAMFKKDGNYYLIMSGCSGWNPNAARSAIASSIWGEWKELGNPCIGQDADLTFHSQSTYILPVQGKKNQFIYMGDRWTPQNAIDGRYIWLPIHFEGPKPIIEWKDSWTLD | failed
MNKKNVELLVAIGEVYLKAGKLPEAQEYAALAKKVNGKSALASVLEGDIAFEQKNAGLASQKYEEAIYFDPSCTEAYLRYADIYKSANAALAIEKLEQLKAQEPSNTAVDKKLAEIYYLKNDFSKAAEAYSRFAMGPTATEEDLVKYAFALFLNHDFEKSLEVANMGLKKNARHAAFNRLAMYNYTDLKRFDEAIKAADAFFTESDKADYSYLDYMYYGHLLEALKKYDEAVGQYEKAIQLDPTKTDLYKNISSAYEQKNDYKKAISAYQKYYTSLDKEHQTPDLEHHHHHH | failed
